Measurements published in patent publication US20210355194A1 (published 2021).
Read-outs that look alike come from different tables or passages of the source.

B1: ACE2 variant antibody 4-49 (VHH)
VHH: EVQLVESGGGLVQPGGSLRLSCAASGRTFGDYIMGWFRQAPGKERESVAAINWSAGYTAYADSVKGRFTISADNSKNTAYLQMNSLKPEDTAVYYCARASPNTGWHFDHWGQGTLVTVSS
B2: 2-6 (antibody, V domains shown)
VH: EVQLLESGGGLVQPGGSLRLSCAASGFTFSNYPMNWVRQAPGKGLEWVSTISGSGGNTFYADSVKGRFTISRDNSKNTLYLQMNSLRAEDTAVYYCVRHDEYSFDYWGQGTLVTVSS
VL: DIQMTQSPSSLSASVGDRVTITCRASQSIDTYLNWYQQKPGKAPKLLIYAASALASGVPSRFSGSGSGTDFTLTISSLQPEDFATYYCQQSYSAPPYTFGQGTKVEIK
B3: 10-28 (antibody, V domains shown)
VH: EVQLVESGGGLVQPGGSLRLSCAASGSIFSIGMGWFRQAPGKEREFVARIWWRSGATYYADSVKGRFTISADNSKNTAYLQMNSLKPEDTAVYYCAAISIFGRLKWGQGTLVTVSS
B4: 10-20 (antibody, V domains shown)
VH: EVQLVESGGGLVQPGGSLRLSCAASGRTIRTMGWFRQAPGKEREFVATINSRGITNYADSVKGRFTISADNSKNTAYLQMNSLKPEDTAVYYCTTERDGLLWFRELFRPSWGQGTLVTVSS
B5: 2-5 (antibody, V domains shown)
VH: EVQLLESGGGLVQPGGSLRLSCAASGFTFSDFAMAWVRQAPGKGLEWVSAISGSGDITYYADSVKGRFTISRDNSKNTLYLQMNSLRAEDTAVYYCAREADGLHSPWHFDLWGQGTLVTVSS
VL: DIQMTQSPSSLSASVGDRVTITCRASQSIHTYLNWYQQKPGKAPKLLIYAASALASGVPSRFSGSGSGTDFTLTISSLQPEDFATYYCQQSYSAPPYTFGQGTKVEIK
B6: 2-2 (antibody, V domains shown)
VH: EVQLLESGGGLVQPGGSLRLSCAASGFTFSRHAMNWVRQAPGKGLEWVSGISGSGDETYYADSVKGRFTISRDNSKNTLYLQMNSLRAEDTAVYYCARDLPASYYDSSGYYWHNGMDVWGQGTLVTVSS
VL: DIQMTQSPSSLSASVGDRVTITCRASQTINTYLNWYQQKPGKAPKLLIYSASTLQSGVPSRFSGSGSGTDFTLTISSLQPEDFATYYCQQSYSTFTFGQGTKVEIK
B7: 9-11 (antibody, V domains shown)
VH: EVQLVESGGGLVQPGGSLRLSCAASGRTFGRRAMGWFRQAPGKEREFVAGISRGGGTNYADSVKGRFTISADNSKNTAYLQMNSLKPEDTAVYYCAAKGIWDYLGRRDFGDWGQGTLVTVSS
B8: 3-7 (antibody, V domains shown)
VH: EVQLLESGGGLVQPGGSLRLSCAASGFMFGNYAMSWVRQAPGKGLEWVAAISGSGGSTYYADSVKGRFTISRDNSKNTLYLQMNSLRAEDTAVYYCAKDRGYSSSWYGGFDYWGQGTLVTVSS
VL: DIQMTQSPSSLSASVGDRVTITCRASQSIGRYLNWYQQKPGKAPKLLIYASSSLQSGVPSRFSGSGSGTDFTLTISSLQPEDFATYYCQQSYSLPRTFGQGTKVEIK
B9: 10-27 (antibody, V domains shown)
VH: EVQLVESGGGLVQPGGSLRLSCAASGRTFRRYSMGWFRQAPGKEREFVASITPGGNTNYADSVKGRFTISADNSKNTAYLQMNSLKPEDTAVYYCASRRRWLTPYIFWGQGTLVTVSS
B10: 2-9 (antibody, V domains shown)
VH: EVQLLESGGGLVQPGGSLRLSCAASGFTFPRYAMSWVRQAPGKGLEWVSTISGSGSTTYYADSVKGRFTISRDNSKNTLYLQMNSLRAEDTAVYYCARLIDAFDIWGQGTLVTVSS
VL: DIQMTQSPSSLSASVGDRVTITCRASQRIGTYLNWYQQKPGKAPKLLIYAASNLEGGVPSRFSGSGSGTDFTLTISSLQPEDFATYYCQQNYSTTWTFGQGTKVEIK

Key:
ACE2 = ACE2 (human, UniProt Q9BYF1 18-740); experiment: SPR
SARS-CoV-2 S1 protein [1] = target: T1, SARS-CoV-2 S1 protein (SARS-CoV-2, UniProt P0DTC2 16-685); experiment: SPR
[2] = target: T2, SARS-CoV-2 S protein trimer (SARS-CoV-2, UniProt P0DTC2 14-1208); experiment: SPR
SARS-CoV-2 S1 protein [3] = target: T1, SARS-CoV-2 S1 protein; experiment: SPR; remark: listed apart in the source
[4] = target: T2, SARS-CoV-2 S protein trimer; experiment: SPR; remark: listed apart in the source
SARS-CoV-2 S1 RBD = SARS-CoV-2 S1 RBD (SARS-CoV-2, UniProt P0DTC2 319-537); experiment: competition
[5] = target: T3, SARS-CoV-2 membrane protein (SARS-CoV-2, UniProt P0DTC5 1-222); experiment: SPR
[6] = target: T3, SARS-CoV-2 membrane protein; experiment: SPR; remark: listed apart in the source
[7] = target: T3, SARS-CoV-2 membrane protein; experiment: SPR; remark: listed apart in the source
human ACE2 = human ACE2 (human, UniProt Q9BYF1 18-740); experiment: SPR
Sequence of human ACE2 (Q9BYF1 18-740): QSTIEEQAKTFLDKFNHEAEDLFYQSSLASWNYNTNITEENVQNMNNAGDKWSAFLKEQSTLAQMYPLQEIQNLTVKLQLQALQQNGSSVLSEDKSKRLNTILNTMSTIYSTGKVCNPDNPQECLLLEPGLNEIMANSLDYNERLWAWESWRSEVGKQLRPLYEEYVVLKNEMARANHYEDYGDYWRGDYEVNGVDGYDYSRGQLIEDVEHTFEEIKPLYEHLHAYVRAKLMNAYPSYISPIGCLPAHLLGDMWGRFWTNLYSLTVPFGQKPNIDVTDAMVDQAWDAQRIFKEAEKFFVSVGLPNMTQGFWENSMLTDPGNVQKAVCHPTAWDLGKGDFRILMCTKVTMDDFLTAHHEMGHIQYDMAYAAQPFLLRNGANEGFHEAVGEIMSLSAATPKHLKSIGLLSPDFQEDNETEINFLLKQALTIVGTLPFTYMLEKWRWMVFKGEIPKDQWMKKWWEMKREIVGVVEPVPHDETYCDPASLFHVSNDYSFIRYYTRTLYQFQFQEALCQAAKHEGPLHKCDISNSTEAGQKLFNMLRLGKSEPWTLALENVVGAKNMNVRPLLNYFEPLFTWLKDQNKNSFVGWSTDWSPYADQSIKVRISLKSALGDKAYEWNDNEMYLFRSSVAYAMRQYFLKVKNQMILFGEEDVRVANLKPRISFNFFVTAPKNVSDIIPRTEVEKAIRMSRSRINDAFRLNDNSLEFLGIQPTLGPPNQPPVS

Sequence of ACE2 (Q9BYF1 18-740): as above

| Binder | Kd (SARS-CoV-2 S1 protein [3]) | Kd [4] | IC50 (SARS-CoV-2 S1 RBD) | Kd [5] | other results |
| --- | --- | --- | --- | --- | --- |
| B1 | – | – | – | – | Kd (ACE2): 2.3 nM |
| B2 | 7.2 nM | 0.036 nM | 0.754 nM | – | Kd (SARS-CoV-2 S1 protein [1]): 7.2 nM; Kd [2]: < 0.036 nM |
| B3 | – | – | – | 5.6 nM | Kd [6]: 5.6 nM |
| B4 | – | – | – | – | Kd [7]: 66 nM |
| B5 | 0.223 nM | 1.7 nM | 3.83 nM | – | – |
| B6 | 74 nM | 0.143 nM | 1.26 nM | – | – |
| B7 | – | – | – | 0.593 nM | – |
| B8 | – | – | – | – | Kd (human ACE2): 0.326 nM |
| B9 | – | – | – | 5.7 nM | – |
| B10 | – | – | 4.69 nM | – | – |
